Data taken from article PMC4738300, “Physiological lipid composition is vital for homotypic ER membrane fusion mediated by the dynamin-related GTPase Sey1p” (Scientific Reports, 2016).

B1: Sey1p (tagged full-length recombinant Sey1p: GST-His6-3C-Sey1p and His6-3C-Sey1p) (natural protein, S. cerevisiae, UniProt Q99287 1-776, looked up)
chain: MADRPAIQLIDEEKEFHQSALQYFQQCIGNRDVGLDYHVISVFGSQSSGKSTLLNVLFNTNFDTMDAQVKRQQTTKGIWLAHTKQVNTTIEIDNDRPDIFVLDVEGSDGSERGEDQDFERKAALFAIAVSEVLIVNMWEQQIGLYQGNNMALLKTVFEVNLSLFGKNDNDHKVLLLFVIRDHVGVTPLSSLSDSVTRELEKIWTELSKPAGCEGSSLYDYFDLKFVGLAHKLLQEDKFTQDVKKLGDSFVMKGTENYYFKPQYHHRLPLDGWTMYAENCWDQIERNKDLDLPTQQILVARFKTEEISNEALEEFISKYDESIAPLKGNLGSLTSQLVKLKEECLTKYDEQASRYARNVYMEKREALNTKLNSHISGTINEFLESLMEKLWDDLKLEVSSRDKATTSFVESVAAGKSKIEKEFNESMETFKKLGLLISNEEITCKFSDDIEERIKQLRDAELKAKIGRIKKNLVPELKDHVIHLLSHPSKKVWDDIMNDFESTIKDNISAYQVEKDKYDFKIGLSESENAKIYKNIRILAWRTLDTTVHDYLKIDTIVSILRDRFEDVFRYDAEGSPRLWKTEEEIDGAFRVAKEHALEVFEVLSLAVTSDNVEIIPDVPMAEEESGEDNEIYRDNEGVFHSRRFAHILTELQKENVLDQFRRQINITVLDSKRSIITTRTHIPPWIYVLLAVLGWNEFVAVIRNPLFVTLTLILGATFFVIHKFGLWGPVVNVVQSAVGETRTAIKDKLRQFVVEDHEVKESFEMKDFSKNEQKEK
notes: The bait copy is GST-His6-3C-Sey1p (pET-41 Ek/LIC) and the prey copy is His6-3C-Sey1p (pET-30 Ek/LIC); GST is on the bait copy only; The tags were not cleaved in the pull-down; also called GST-Sey1p; His6-Sey1p; source: E. coli Rosetta 2(DE3)pLysS, purified (COSMOGEL His-Accept beads, imidazole elution, dialysis; in 0.4% Triton X-100); not shown: His6, N-terminal, kept; GST, N-terminal, kept
B2: untagged full-length Sey1p reconstituted into proteoliposomes (natural protein, S. cerevisiae)
chain: GPGMADRPAIQLIDEEKEFHQSALQYFQQCIGNRDVGLDYHVISVFGSQSSGKSTLLNVLFNTNFDTMDAQVKRQQTTKGIWLAHTKQVNTTIEIDNDRPDIFVLDVEGSDGSERGEDQDFERKAALFAIAVSEVLIVNMWEQQIGLYQGNNMALLKTVFEVNLSLFGKNDNDHKVLLLFVIRDHVGVTPLSSLSDSVTRELEKIWTELSKPAGCEGSSLYDYFDLKFVGLAHKLLQEDKFTQDVKKLGDSFVMKGTENYYFKPQYHHRLPLDGWTMYAENCWDQIERNKDLDLPTQQILVARFKTEEISNEALEEFISKYDESIAPLKGNLGSLTSQLVKLKEECLTKYDEQASRYARNVYMEKREALNTKLNSHISGTINEFLESLMEKLWDDLKLEVSSRDKATTSFVESVAAGKSKIEKEFNESMETFKKLGLLISNEEITCKFSDDIEERIKQLRDAELKAKIGRIKKNLVPELKDHVIHLLSHPSKKVWDDIMNDFESTIKDNISAYQVEKDKYDFKIGLSESENAKIYKNIRILAWRTLDTTVHDYLKIDTIVSILRDRFEDVFRYDAEGSPRLWKTEEEIDGAFRVAKEHALEVFEVLSLAVTSDNVEIIPDVPMAEEESGEDNEIYRDNEGVFHSRRFAHILTELQKENVLDQFRRQINITVLDSKRSIITTRTHIPPWIYVLLAVLGWNEFVAVIRNPLFVTLTLILGATFFVIHKFGLWGPVVNVVQSAVGETRTAIKDKLRQFVVEDHEVKESFEMKDFSKNEQKEK
notes: three extra N-terminal residues (Gly-Pro-Gly) left after 3C protease cleavage, printed in three-letter code; Inserted by its two C-terminal transmembrane domains into liposomes; Protein-to-lipid ratio 1/500 (mol/mol); also called untagged form of Sey1p; Sey1p proteoliposomes; not shown: His6, N-terminal, cleaved

Tests used:
[1] = target: the molecule itself; assay: pull-down; GST-Sey1p and His6-Sey1p, 4 uM each, mixed in RB150 (20 mM Hepes-NaOH pH 7.4, 150 mM NaCl, 10% glycerol) with 0.4% Triton X-100, 2 mM MgCl2 and 1 mM GTP, 4 °C; GST-Sey1p isolated on glutathione-Sepharose 4B; SDS-PAGE, Coomassie Blue
[2] = target: the molecule itself; assay: proteoliposome docking assay (co-isolation of liposomes on streptavidin beads); biotin-labeled Sey1p proteoliposomes held on streptavidin magnetic beads and Rh-labeled Sey1p proteoliposomes (500 uM lipid each) in RB500 with 2 mM MgCl2 and 1 mM GTP, 30 °C, 30 min; Rh fluorescence of co-isolated liposomes; complete ER-mimicking lipids and four lipid subsets (Table 1)

Protein	binding result [1]	binding result [2]
B1	binds	–
B2	–	binds
